Article PMC5241739, “Structure of the Toll/Interleukin-1 Receptor (TIR) Domain of the B-cell Adaptor That Links Phosphoinositide Metabolism with the Negative Regulation of the Toll-like Receptor (TLR) Signalosome*^([image sbox.jpg])” (The Journal of Biological Chemistry, 2016)

B1: BCAPS, splice variant of BCAP (natural protein, human, UniProt Q6ZUJ8-2 1-627, looked up)
chain: MVVQPDRIRCGAETTVYVIVRCKLDDRVATEAEFSPEDSPSVRMEAKVENEYTISVKAPNLSSGNVSLKIYSGDLVVCETVISYYTDMEEIGNLLSNAANPVEFMCQAFKIVPYNTETLDKLLTESLKNNIPASGLHLFGINQLEEEDMMTNQRDEELPTLLHFAAKYGLKNLTALLLTCPGALQAYSVANKHGHYPNTIAEKHGFRDLRQFIDEYVETVDMLKSHIKEELMHGEEADAVYESMAHLSTDLLMKCSLNPGCDEDLYESMAAFVPAATEDLYVEMLQASTSNPIPGDGFSRATKDSMIRKFLEGNSMGMTNLERDQCHLGQEEDVYHTVDDDEAFSVDLASRPPVPVPRPETTAPGAHQLPDNEPYIFKVFAEKSQERPGNFYVSSESIRKGPPVRPWRDRPQSSIYDPFAGMKTPGQRQLITLQEQVKLGIVNVDEAVLHFKEWQLNQKKRSESFRFQQENLKRLRDSITRRQREKQKSGKQTDLEITVPIRHSQHLPAKVEFGVYESGPRKSVIPPRTELRRGDWKTDSTSSTASSTSNRSSTRSLLSVSSGMEGDNEDNEVPEVTRSRSPGPPQVDGTPTMSLERPPRVPPRAASQRPPTRETFHPPPPVPPRGR
notes: The first residue is worked out from the legend's words 'lacks the first 180 amino acids'; source: cloned into pMCSG7, purified (StrepTrap, S200 size exclusion)
B2: Full-length BCAP, BCAPL (1–805) (natural protein, human, UniProt Q6ZUJ8-1 1-805, looked up)
chain: MAASGVPRGCDILIVYSPDAEEWCQYLQTLFLSSRQVRSQKILTHRLGPEASFSAEDLSLFLSTRCVVVLLSAELVQHFHKPALLPLLQRAFHPPHRVVRLLCGVRDSEEFLDFFPDWAHWQELTCDDEPETYVAAVKKAISEDSGCDSVTDTEPEDEKVVSYSKQQNLPTVTSPGNLMVVQPDRIRCGAETTVYVIVRCKLDDRVATEAEFSPEDSPSVRMEAKVENEYTISVKAPNLSSGNVSLKIYSGDLVVCETVISYYTDMEEIGNLLSNAANPVEFMCQAFKIVPYNTETLDKLLTESLKNNIPASGLHLFGINQLEEEDMMTNQRDEELPTLLHFAAKYGLKNLTALLLTCPGALQAYSVANKHGHYPNTIAEKHGFRDLRQFIDEYVETVDMLKSHIKEELMHGEEADAVYESMAHLSTDLLMKCSLNPGCDEDLYESMAAFVPAATEDLYVEMLQASTSNPIPGDGFSRATKDSMIRKFLEGNSMGMTNLERDQCHLGQEEDVYHTVDDDEAFSVDLASRPPVPVPRPETTAPGAHQLPDNEPYIFKVFAEKSQERPGNFYVSSESIRKGPPVRPWRDRPQSSIYDPFAGMKTPGQRQLITLQEQVKLGIVNVDEAVLHFKEWQLNQKKRSESFRFQQENLKRLRDSITRRQREKQKSGKQTDLEITVPIRHSQHLPAKVEFGVYESGPRKSVIPPRTELRRGDWKTDSTSSTASSTSNRSSTRSLLSVSSGMEGDNEDNEVPEVTRSRSPGPPQVDGTPTMSLERPPRVPPRAASQRPPTRETFHPPPPVPPRGR
notes: B-cell adaptor for phosphoinositide 3-kinase (BCAP), human, full-length form BCAPL, residues 1-805; Cloned into the same vector as the His6-tagged TIR domain; source: cloned into pMCSG7, purified (StrepTrap, S200 size exclusion)
B3: BCAP330, the first 330 residues of BCAPL (domain or fragment, human, UniProt Q6ZUJ8-1 1-330, looked up)
chain: MAASGVPRGCDILIVYSPDAEEWCQYLQTLFLSSRQVRSQKILTHRLGPEASFSAEDLSLFLSTRCVVVLLSAELVQHFHKPALLPLLQRAFHPPHRVVRLLCGVRDSEEFLDFFPDWAHWQELTCDDEPETYVAAVKKAISEDSGCDSVTDTEPEDEKVVSYSKQQNLPTVTSPGNLMVVQPDRIRCGAETTVYVIVRCKLDDRVATEAEFSPEDSPSVRMEAKVENEYTISVKAPNLSSGNVSLKIYSGDLVVCETVISYYTDMEEIGNLLSNAANPVEFMCQAFKIVPYNTETLDKLLTESLKNNIPASGLHLFGINQLEEEDMMTN
notes: B-cell adaptor for phosphoinositide 3-kinase (BCAP), human, the N-terminal 330 residues (TIR and DBB domains); also called N-terminal variant; source: cloned into pMCSG7, purified (StrepTrap, S200 size exclusion)

Molecular target: the molecule itself
Assay: AUC; sedimentation velocity, Beckman XL-A, 0.3 to 1 mg/ml, 30,000–40,000 rpm, c(S) and c(M) analysis with SEDFIT

Stoichiometry N, 2:
B1
B2
B3
